What was measured:
[1] = molecular target: T1, C4α peptide (SEQ ID NO:23), modeled on tyrosine sulfation sites in the α chain of the fourth component of complement
T1 chain: EANEDYEDYEYDELPAC

[2] = molecular target: T2, HCII peptide (SEQ ID NO:24), modeled on the tyrosine sulfation site in heparin cofactor II
T2 chain: EGEEDDDYLDLEKIFC

B1: Human TPST-1-HPC4 fusion protein (protein)
chain: MEDQVDPRLIDGKDPVGKLKQNLLLACLVISSVTVFYLGQHAMECHHRIEERSQPVKLESTRTTVRTGLDLKANKTFAYHKDMPLIFIGGVPRSGTTLMRAMLDAHPDIRCGEETRVIPRILALKQMWSRSSKEKIRLDEAGVTDEVLDSAMQAFLLEIIVKHGEPAPYLCNKDPFALKSLTYLSRLFPNAKFLLMVRDGRASVHSMISRKVTIAGFDLNSYRDCLTKWNRAIETMYNQCMEVGYKKCMLVHYEQLVLHPERWMRTLLKFLQIPWNHSVLHHEEMIGKAGGVSLSKVERSTDQVIKPVNVGALSKWVGKIPPDVLQDMAVIAPMLAKLGYDPYANPPNYGKPDPKIIENTRRVYKGEFQLPDFLKEKPQTEQVE
[1]
  specific activity of TPST-1 extracts relative to TPST-2 extracts assayed in parallel: 9-fold higher using the C4α peptide
[2]
  specific activity of TPST-1 extracts relative to TPST-2 extracts assayed in parallel: 21-fold higher using the HCII peptide as substrate

Reference: US20030170849
